Tested on: MS2 coat protein
Experiment: apparent KD of MS2 coat protein; designed switch direction (-1 OFF switch, 1 ON switch): -1; higher = weaker reporter binding
Summary of the method: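 SNAP-549-labelled MS2 coat protein was titrated, doubling from 0.7 or 1.5 nM to 3 µM, over designed RNA switches transcribed on Illumina chips by stalled E. coli RNA polymerase. Runs were done without input, with 200 uM small-molecule ligand, or with an oligonucleotide input. Apparent KD is the per-design median over clusters of curve-fitted normalised fluorescence.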

[1] = input ligand: microRNA oligo, concentration not stated
[2] = Eterna round: R95, input ligand: FMN 200 uM
[3] = Eterna round: R95, input ligand: microRNA oligo, concentration not stated
[4] = Eterna round: R95, input ligand: none

Row | Sequence | apparent KD of MS2 coat protein [1] | apparent KD of MS2 coat protein (input ligand: FMN 200 uM) | apparent KD of MS2 coat protein (input ligand: none) | apparent KD of MS2 coat protein [2] | apparent KD of MS2 coat protein [3] | apparent KD of MS2 coat protein [4]
1 | CACCGUUAGUGAGGAUAUCUUACAUGAGGAUCACCCAUGUAAUAAAUGAGAAUUUCGGAUGUAUUAGAGAAGGCACAAAUCGGC [Ostricism 57 - Jieux - Exclusion NG 2] (Eterna round: R96, puzzle: Exclusion NG 2) | 17.7 nM | – | – | – | – | –
2 | CUCCGGCGUGUAGGAUAUGGAUCCGAUUAGGAUCCAGAAGGACAUGAGGAUCACCCAUGUACAUGUAGACGGUCGUCACCGGGC [salish99_ExNG1_r04_208] (Eterna round: R96, puzzle: Exclusion NG 1) | 32 nM | 195 nM | 42.1 nM | – | – | –
3 | ACUAAACAUGUAGGAUAUGCGUGGCGAAGCUAUGCAGAAGGACAUGAGGAUCACCCAUGUUUUAGCGUCUGCGUACAGAUGCGU [JL ENG1 1.44] (Eterna round: R96, puzzle: Exclusion NG 1) | 17.5 nM | 200 nM | 22.7 nM | – | – | –
4 | AAUGUCCAACGAGGAUAUGGGAAAGGAAGUGUACCAGAAGGCGUACGGACAUGAGGAUCACCCAUGUCGCGCGGCGCGAUGUGG [PowerStrip EXNG 1.14] (Eterna round: R96, puzzle: Exclusion NG 1) | 46.4 nM | 80.9 nM | 52.7 nM | – | – | –
5 | AAGAUGUGAGGAUAUGUAUCGCAUAUAGAGCGAACACUAGGAUAGAAGGCACAUGAGGAUCACCCAUGUGAUCG [Eternabot (L2) Solution 73] (Eterna round: R97, puzzle: Exclusion 4) | – | 39.9 nM | 45.3 nM | – | – | –
6 | AAAUAAACAAGCAACUCGAACAUGAGGAUCACCCAUGUAAAGGGUGAAUCGUCCACCCAAAAAAAAAAUAAAAAAAA [Mat - Sensor v2 - Eli mod - 132] (Eterna round: R96, puzzle: Sensor v2, turn-off variant) | 116 nM | 57.7 nM | 55.9 nM | – | – | –
7 | CUGAGGUAGCGGUCCUAUGACAUGAGGAUCACCCAUGUACCUUGCUUUGAGCUUUUAGCUCGUCUUAUGAUUCUCGG [Mat - Sensor v3 - turn-off var 1 - JL Mod - D43] (puzzle: Sensor v3, turn-off variant 1) | – | – | – | 271 nM | 235 nM | 446 nM
8 | UGUGCUUCAGGAUAUACGUGACGUCCGUGAGGACGAAGGUUACAUGAGGAUCACCCAUGUAGAAGGGAAGUACU [Mat - Exclusion 2 - JL Mod - D30] (Eterna round: R97, puzzle: Exclusion 2) | – | 110 nM | 20.2 nM | – | – | –
9 | AUUUAAUUUAAUAAGAUCACAUGAGGAUCACCCAUGUAUAUAUAGGAUAUCAGCUCGUGUAGAGCUGAGAAGGAUAUAUACUAU [ExNG3/7-B3] (Eterna round: R96, puzzle: Exclusion NG 3) | 266 nM | – | – | – | – | –
10 | UGGACACCAGUAGGAUAUGUAGGAUAUGUUGUUGAGGAUCACCCAACAAAUUAAACGACAGAAGGACAGAAGGACUAUUAUCCU [pwkr exNG2 2xFMN 1xF5.1] (Eterna round: R96, puzzle: Exclusion NG 2) | 57.8 nM | 52.5 nM | 60.8 nM | – | – | –
11 | AGUAUGUCAGGAUAUCUCGGGUAGUCCACAACAGCUACCGAAGAGAAGGGACAUGAGGAUCACCCAUGUACCAU [EX4 B.23] (Eterna round: R97, puzzle: Exclusion 4) | – | 19.4 nM | 30.6 nM | – | – | –
12 | AAGAUACAUGAGGAUCACCCAUGUUAGGAUAUACGCAUGCAUGCAUGCAUGCAUGCAAGUAGAAGGAACCAUGC [Design #3] (Eterna round: R97, puzzle: Exclusion 1) | – | 29.2 nM | 28.4 nM | – | – | –
13 | GGUUGACAUGAGGAUCACCCAUGUGAGGAUAUGCGAGAGAAAAAAGUGAGGAAGAAAAGCAGAAGGCGCUGACG [salish99-ex1_r3_002] (puzzle: Exclusion 1) | – | – | – | 15.5 nM | 28.6 nM | 13.5 nM
14 | CUCGUGUUAGGAUAUCUAUCGCGGAUGACAGAGAGGACGUUGGAGAAGGAACAUGAGGAUCACCCAUGUUCUGG [Eternabot (L2) Solution 86] (Eterna round: R97, puzzle: Exclusion 4) | – | 18.8 nM | 14.5 nM | – | – | –
15 | UUUUUCAGGCCAGAUCCUCACAUGAGGAUCACCCAUGUGCUCGUCUGUUUUCGCUCUAGCUUUUUUUUGGUAGUGCU [Level Boss var2-16] (puzzle: Sensor v3, turn-off variant 1) | – | – | – | 164 nM | 31.8 nM | 243 nM
16 | CUUUUGUGAGGAUAUCAGUAGUAAAUAAAUAAAAUUAUUACUGAGAAGGCACAUGAGGAUCACCCAUGUUCCUC [salish99_ex3_r3_086] (puzzle: Exclusion 4) | – | – | – | – | 36.9 nM | –
17 | UGUCAGAUGGUAGGAUAUCCAUAUCGAGUGACCCUUUCAUAACAUGAGGAUCACCCAUGUUGGUGGGAGAAGGGCCGUAUGGUG [salish99_ExNG02_R04_026] (Eterna round: R96, puzzle: Exclusion NG 2) | 12.7 nM | 13.2 nM | 15.5 nM | – | – | –
18 | GGCGAAGUAGGAUAUACAUGAGGAUCACCCAUGUAACCUGAUGGCGUAGGUCUUCUAUGUAGAAGGACUACGCC [jl-ex3-4.39 ViennaUCT mod] (Eterna round: R97, puzzle: Exclusion 3) | – | 15.9 nM | 18.1 nM | – | – | –
19 | AUAAUCGUAGGAUAUCAUUAGCCCUACAUGAGGAUCACCCAUGUGGGCUGGUGAGGGCGGUGAGAAGGACGAGAGA [EX5 B.1] (Eterna round: R97, puzzle: Exclusion 5) | – | 25.1 nM | 18.4 nM | – | – | –
20 | UAUAUAUAGUAAGGAUAUGUAAUUAUUUGAUAAACAGAAGGUACUGACAUGAGGAUCACCCAUGUUUUAGUGUGGGCAUGUAGA [JMF's solution 42] (Eterna round: R96, puzzle: Exclusion NG 1) | 72.7 nM | – | – | – | – | –
21 | GACAUGAGGAUCACCCAUGUAAGGGAUGAACUUCUGGGUAGCUAGGAUAUGGCUAUAAAGAUGGACCAGAAGGAGCGGACCCUA [Orlaveceat] (Eterna round: R96, puzzle: Exclusion NG 3) | 31.4 nM | 48.7 nM | 32.4 nM | – | – | –
22 | AGUGUGAUAGGAUAUACAUGAGGAUCACCCAUGUGAAUGGUAAUGUGUCCAAGAUCAGGUAGAAGGGUCGGGUU [Eternabot (L1) Solution 56] (Eterna round: R97, puzzle: Exclusion 3) | – | 83.6 nM | 101 nM | – | – | –
23 | ACCUAUGAGGAGGAUAUACGGUGCGAAAGGAUGGUAGAAGGCUUCACAUGAGGAUCACCCAUGUCUAUAAGCGA [EX6 #87] (Eterna round: R97, puzzle: Exclusion 6) | – | 27.8 nM | 18.3 nM | – | – | –
24 | AUUAUAUAGAAAGGAUAUAGAAUAUUAUUUUAACAUGAGGAUCACCCAUGUAACCUUAUGUGUAGCUAGAAGGUUCAUUUAUUA [Title] (Eterna round: R96, puzzle: Exclusion NG 2) | 52.5 nM | – | – | – | – | –
25 | AAACAGCAAGGAUAUACGGGCUGUGCUUUUCAUUUCAUACAACAUGAGGAUCACCCAUGUAGAAGGUGCAACAA [Ex2 #4] (Eterna round: R97, puzzle: Exclusion 2) | – | 125 nM | 34.3 nM | – | – | –

Source: the supplement of paper PMC9170038
